Usually Km stands for the concentration of substrate that gives half-maximal velocity.

The values below come from article doi:10.1101/820381v1 (biorxiv, 2019).

For data set [1], the target named is T1, OPR3 (12-oxophytodienoic acid reductase 3) (Arabidopsis thaliana, UniProt Q9FUP0). Put plainly: intrinsic Trp fluorescence quenching. The note with it: 0.75 µmol/L OPR3, 40 mmol/L KPi pH 7.2, 25°C. In kind it is binding.
Data set [2] deals with T1, OPR3 (12-oxophytodienoic acid reductase 3). The following applies: NADPH co-substrate, 40 mmol/L KPi pH 7.2, 25°C, aerobic.
For data set [3], the system named is [O]C1=C(O)[C@@H]([C@@H](O)CO)OC1=O. Put plainly: purified protein. The note with it: pH 7.8.
The subject of data set [4] is O=C1C=CCC1. Put plainly: purified protein. The following applies: pH 7.2; 25.0 °C.
In data set [5] the test system is CC/C=C\C[C@@H]1C(=O)C=C[C@@H]1CCCCCCCC(=O)O. Put plainly: purified protein. The following applies: pH 7.2; 25.0 °C.

T1 sequence (Q9FUP0 whole entry): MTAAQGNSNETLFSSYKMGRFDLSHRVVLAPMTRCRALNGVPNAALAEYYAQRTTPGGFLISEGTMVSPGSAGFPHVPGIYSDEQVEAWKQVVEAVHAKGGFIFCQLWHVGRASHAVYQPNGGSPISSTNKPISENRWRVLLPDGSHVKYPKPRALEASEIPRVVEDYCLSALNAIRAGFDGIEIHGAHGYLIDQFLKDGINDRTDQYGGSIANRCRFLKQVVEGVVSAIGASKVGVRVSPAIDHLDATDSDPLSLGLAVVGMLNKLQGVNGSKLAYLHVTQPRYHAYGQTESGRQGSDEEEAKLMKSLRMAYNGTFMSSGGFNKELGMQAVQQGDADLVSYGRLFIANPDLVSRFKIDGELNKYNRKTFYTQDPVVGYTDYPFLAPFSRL

Turning to `CC/C=C\C[C@@H]1C(=O)C=C[C@@H]1CCCCCCCC(=O)O` [12-OPDA], the “% quenching at 607 μmol/L” value in data set [1] came out at 54.0±0.4%.

Take `C=CC(C)=O` [MVK]: in data set [2], the Km came to 38.5 ± 14 µM.

As to “OPR3 (12-oxophytodienoic acid reductase 3) (Arabidopsis thaliana)”, the values for the Km in data set [3], in data set [4] and in data set [5] were 1 µM, 1967 ± 825 µM and 28.3 ± 8.5 µM, respectively.
